Our source for the list of priority (rank by SPR binding, high binders listed first) values is US20230321209A1.

The target of this assay is human Adenovirus capsid. The assay can be described thus: SPR, peptide on adenovirus capsid (FIGS. 13A-13B). (In general: SPR reads the build-up and loss of mass on a sensor chip optically.)

On to KKKKKKKRAKVTSAMQTMLFTMLRKL [R1A_KRAKV SARS-CoV2 peptide with 6K poly-lysine tail], for which the list of priority (rank by SPR binding, high binders listed first) stood at 5 rank.
